Assay: soluble on expression in E. coli; label from the status in PepcDB or PDB records

Row | Sequence | soluble on expression in E. coli
1 | MRVFPVTLGPLQENAYLVETGEGPVLIDPGDEPEKLLALFQTTGLIPLAILLTHAHFDHVGAVAPLVEALDLPVYLHPLDLPLYEGADLAARAWGLAIPKPPLPVRPLEEGMRLFGFQVLHLPGHSPGHVAFYDPEGAQVFSGDLLFRGSVGRYDLPGADPKALFASLKRLLSLPPETRVHPGHGPGTTLGLEARTNPFLTGLEWEA | soluble
2 | MGKFLVQFWGVRGLIPTPSSNTSRYGGNTACVEMQVAGKRLIFDGGTGLRILGKAWQHLQQPLEAHLFFTNSQSNRIQGFPFFAPAFIAGNCFHIYGGAASNGASIKQCLCDQMLQPHFPYPLQVMQSELQFYPLTPDSEVKLDDVTIRTALINQTQRSIGYRVTWQEYSVAYVTDLNMSAEQGEREQVLQIIQDVDLLIANATYTPPTSHDHESVDLLWQAAVEMAQKAGVRKLIISHHHPDDHDDFLDQVEKEVQSTFSDALLACEGLALPVFLEHHHHHH | not soluble
3 | MLDSKLKAPVFTVRTQGREYGEFVLEPLERGFGVTLGNPLRRILLSSIPGTAVTSVYIEDVLHEFSTIPGVKEDVVEIILNLKELVVRFLNPSLQTVTLLLKAEGPKEVKARDFLPVADVEIMNPDLHIATLEEGGRLNMEVRVDPGVGYVPAEKHGIKDRINAIPVDAVFSPVRRVAFQVEDTRLGQRTDLDKLTLRIWTDGSVTPLEALNQAVEILREHLTYFSNPQAAAVAAPEEAKEPEAPPEQEEELDLPLEELGLSTRVLHSLKEEGIESVRALLALNLKDLKNIPGIGERSLEEIKEALEKKGFTLKE | soluble
4 | MTALETQLTEIVEKEQGQKIIPFLQKLTQEERESLIPCLSRLEEYYNKFVQLEERTYGTRATSGQHHIIDLAALVIFPLKEFRKHEWGINTAHLNEIAAWHIPTWLDSYFVEGEGKEFGGFYNMDYEILMDWIERGILTISPSPQTIAGYLVNYIHTTPVLEKRDITINEHIWYLFEYDCGQNWHANPAKGYPYYTFQHFTENGKLDRMRVLKESLLAINRNFNKNLCSWFAGMFTALSPSVEEQLTLQPEMLAALSSPHSRPINIILGLLKNLCSHPRFLTDDFLDQTTVLFASDVKAVHQNTLGVLSKLAKEKKEYRDTICCAAAQGLMSRDESTQNKIVKLIQTFGETESPTLKEALSAYAETMLTSTKKELAAYLKDNVSDALSTDKVLLTTLDEQASVASFDYEPMPPILREDNRIQEITSIEDLIFLASQILDSNELYHFDLFLNALVEWNEQLEAKHITQWTPVLQRAYKLLINGGSSRNGILDSMMATFLIDYAKLLIKRFPVEAKELSTLHEKMVQKDELQKGQWRYRNLQRITIRQKSNKRTEFPIHKQLLYRTLDLLESNENRLPMLSTPTHMPAFIDPIVLIKRLGQYQQANAEPDDIDMQIALSRMALNNYPSQDFPTVLQELKGEYQSLFSFLIGAKDAVPQAPFAHPSWWMTAGLIKSPETVYTEFKDFSYSKSSREFLTGNFSWWTFQTPHSYTDYHNKVVNWTSSTLSFNVPEGENIHIVNKGKYDERVSYHSYDPHPLLVEMYSQIERYDDIQNDLPRLVWLAPNTPEPLFVWCIRCAIYDPMLNEVREVGITQATIEALHQLRHEWHETSYLLEASCMLVADKTSRSYAAGIWTDRVNTGCIDSARIGRILGSHQRTGWGPLKRLTDLIQQQMINVSPLHNRELELLLTSLIAELPEQPVKELKKLLEIYSELLSVNNSRVTDERILQLLEIWKNTANLKKVIVSINR | not soluble
5 | SDIELIHCGADLVERMMNDIRQAASSVHMMFFIMKNDEVSHNMYTLLKTKAQAGVSVYLLLDWAGCRAIKKTALQTMKNAGVHVHVMNRPRFPFFFFHMQKRNHRKITVIDGKIGYIGGFNIAEEYLGKKAKFGNWEDYHLRMIGEGVHDLQTLFASDLKRNTGIELGSDVWPKLQQGTISHKIYATDGYSLENIYLANIAQAKNRLTVCTPYYIPSKPLQEALINARKNGVSVRIIVPMKSDHPLVREAAFTYYSELLDAGCLIYRYYQGFYHVKALIIDDHLSIIGTANFDKRSLFLNEEVNVEIDDEAFTSEVYATIEEDMKKSELLTMEDFSKRTFRQRPAEWLGR | not soluble
6 | MSEKRLPLKPVLRIDFPPGERLGHGKVELMQLIAETGSISAAGRAMDMSYRRAWLLVDALNHMFRQPVICSQRGGKQGGGAALTVFGAELLERYRGMEERMNEALREDIDWLEANRNPQDALNRDREPPTL | soluble
7 | SAEDGLPKIYSHPPTESSKTPTAATIFFGADNAIPKSETTITSEGDHVTSVNEYMLESDFSTTTDNKLTAKKEKLKSEDDMGTDFIKSTTHLQKEITSLTGTTNSITRDSITEHFMPVKIGNISSPVTTVSLIDFSTDIAKEDILLATIDTGDAEISITSEVSGTLKDSSAGVADAPAFPRKKDEADMSNYNSSIKSNVPADEAVQVTDSIIPEAEIPPAPEESFTTIPDITALEEEKITEIDLSVLEDDTSAVATLTDSDEKFITVFELTTSAEKDKDKREDTLLTDEETTEGASIGMERDTANEAETHSVLLTAVESRYDFVVPASIATNLVEESSTEEDLSETDNTETVPKITEPFSGTTSVLDTPDYKEDTSTTETDIFELLKEEPDEFMI | not soluble
8 | MAHHHHHHMNRSSSTSVNKDNVLQLTYYEIFSLDEVAESIDLQALHRAYRRFALLFHPDKDASPEAREAFLRVKLAAETLSDPIKRQEYNEQLRREAHEQREVKEQQRECGVGEEAIMAEMILRQKEAESLAKSAAANKEAAEREAAAKKMINELTNALTTPFKQMETALVSEWDIDEGLLDMKVNEIRLLLQKLHNLSCHREGRKGGGGAMGFSSGSEALPTAVKRTREESGVNITA | not soluble
9 | MSLKILGIETSCDETGVAIYDEEKGLIANQLYTQIALHADYGGVVPELASRDHIRKTAPLIKAALEEANLTASDIDGIAYTSGPGLVGALLVGATIARSLAYAWNVPAIGVHHMEGHLLAPMLDDNSPHFPFVALLVSGGHTQLVRVDGVGKYEVIGESIDDAAGEAFDKTAKLLGLDYPGGAALSRLAEKGTPNRFTFPRPMTDRAGLDFSFSGLKTFAANTVNQAIKNEGELIEQTKADIAYAFQDAVVDTLAIKCKRALKETGYKRLVIAGGVSANKKLRETLAHLMQNLGGEVFYPQPQFCTDNGAMIAYTGFLRLKQGQHSDLAIDVKPRWAMAELPAIEGHHHHHH | soluble
10 | MGSDKIHHHHHHMSVPLRAVQLTEPSLFLQEHPEVQFVDLLISDMNGVVRGKRIERNSLPKVFEKGINLPASLFALDITGSTVESTGLGLDIGDADRICYPIPGTLSMEPWQKRPTAQLLMTMHELEGEPFFADPREVLRQVVARFTEMELTIVAAFELEFYLIDQENVNGRPQPPRSPISGKRPQSVQVYSIDDLDEYVECLQDIIDGARAQGIPADAIVAESAPAQFEVNLHHVADPMKACDYAVLLKRLIKNIAYDHEMDTTFMAKPYPGQAGNGLHVHISLLDKHGNNIFTSEDPEQNAALRHAIGGVLETLPASMAFLCPNVNSYRRFGSQFYVPNAPSWGLDNRTVALRVPTGSPDAVRLEHRVAGADANPYLLLASVLAGVHHGLTNKVEPGAPIEGNSYEQLEPSLPNNLRDALRELDDSEILAKYIDPKYIDIFVACKESELEEFEYSISDLEYNWYLHTV | not soluble
11 | MHCSLYTRFNVENAGGDFSVGGARVCFRIPENPCSPRPAVAGRANPLPPVADFGMKEVRTKKKKHMTNDVNGMKKKCGRPALGRTRKLTRGVTVKFSPVSYEALRFRAGKSGRSLAVYIREAALAATVTARHTPEENALLRSLAGMANNLNQLTKLSHQTGFYRTRLLIEGLLGKLKRIMDDYRPKGG | not soluble
12 | MRVREPAVAGTFYPKDKEELNKLMDLLCGFEPKEKIKPKAILVPHAGYIYSGKTACEVYKRIEIPEKVVLLGPNHTGLGKPISVYSGDAWETPYGVVEIDGELREKILKYPYANPDEYAHLYEHSLEVQLPFLQRYARREFKILPIVVTFVEYEVAKDFGRFLGEVLKEEDALIVISSDMSHYVPAEEARKKDEILISAMERLNTEELYFKAVQYNITMCGVVPAVVGIESAKVLGATKGIVVDYSNSGDTTGDYSQVVAYLGMIFLLEHHHHHH | not soluble
13 | MAHHHHHHMTMFGKIHVYKRTYEICSIILKNYFVYYHPLYLDFYLSFAWYNKGSNNEKAFLHFLREFILLQINVCSKRCREKKMEILKMNENFEHLVFSIIFKNNKEEEDNKNKYDINENVNIRRLDNYVSSSFLNDICYPHCNIYNENKNFDILKNFDFLKSNILLASSLHYFINSLFCYYNNDDFINKYKSTDFIFDSILLCIKSLESVKRTYRLSTYTEKGFGNVCLDISLMIIKLKLKHPKFLEKKDNWMLYALRNAMEAEEVTEKK | not soluble
14 | MGSDKIHHHHHHMETKINSKALKAEALRLGFSACGIAPAEPIDQAHQNALKMWLDADRQAGMTYMANHFDKRCDPALLVEGTRCVVSVALNYYPATRIPDEEYQFAWYAYGKDYHDLMREKLATLFRFIQESDVPELNGRMFCDTAPVPERYWAWRAGLGWIGKNTQLIIPHAGSTFFLGELFLNTEADTYDRPQPNRCGRCNRCLQACPTKALETPYSLNAHRCLSYLTIENKSEIPDSIAPFMGNRVYGCDECQKACPWNRFATPCRTPELQPSPEFMNMKKEDWKQLSEEKYRALFKGSAVKRAKYSGLIRNIRQMED | not soluble
15 | GPGSMQQSLIPGHNNNRHLTVEEIENNIGGLAITDNKLQELFDSLDVERTGYLPIGEVKKFYKGLEHYGLEPTDAEIESEMKKFAKSDENFMSYDEFCCLMLSFAQR | not soluble
16 | MILIADSGSTKTDWCVVLNGAVIKRLGTKGINPFFQSEEEIQQKLTASLLPQLPEGKFNAVYFYGAGCTPEKAPVLRRAIADSLPVIGNIKANSDMLAAAHGLCGQKAGIACILGTGSNSCFYNGKEIVSNISPLGFILGDEGSGAVLGKLLVGDILKNQLPATLKEEFLKQFDLTPPEIIDRVYRQPFPNRFLASLSPFIAQHLEEPAIRQLVMNSFIAFFRRNVMQYDYKQYPVHFIGSIAYCYKEILQDAARQTGIQIGKILQSPMEGLIQYHSQLSFHPLEHHHHHH | soluble
17 | MFYLSELEHSLRVPPHLLNLPLEDAIKSVLQNVFLDKVLADLGLCVSIYDIKSVEGGFVLPGDGAATYKVGLRIVVFRPFVGEVIAAKFKESDANGLRLTLGFFDDIYVPAPLMPKPNRCEPDPYNRKQMIWVWEYGEPKEDYIVDDACQIKFRVESISYPSVPTERAEDAKPFAPMVVTGNMDDDGLGPVSWWDSYEQVDQEE | soluble
18 | MARKRIITPEKKELIRNLISEYNITSAKDLQEALKDLLGDTIQNMLEAELDEHLGYEKYESTEEAKSNYRNGYTSKTLKSSVGQVEIDIPRDRNAEFEPKIVPRYKRDISEIENKIIAMYARGMSTREINEQIQEIYGFEVSAEMVSKITDKILPEIEEWQKRPLGEVYPIVFIDAIHFSVKNDGIVGKKAIYIVLAIDIEGQKDVIGIYVGENESSKFWLSVLNDLKNRGVKDILILCADALSGIKDAINAAFPNTEYQRCIVHQIRNTLKYVSDKDRKEFARDLKRIYTAPNEKAGYDQMLEVSEKWEKKYPAAMKSWKSNWDVICPFFKYSEELRKIMYTTNTIESLNSSYRRINKSRTVFPGDQSLLKSIYLATVKITSKWTMRYKNWGLILGQLQIMFEGRI | not soluble
19 | LLQHAHNPVNWYSWSPEAFSKAKSEDKPIFLSIGYSTCHWCHVMERESFEDDDVAEVLNRSFVSIKVDREERPDIDEIYMNVCTAITGSGGWPLTIVMTPEQKPFFAGTYIPKNNRMGMQGLISLLENIEYQWKENQNELVEIGDKIVSSLNKDRKT | not soluble
